Experimental findings from patent publication US20180282403A1, “AGENTS FOR REDUCING THE ACTIVITY OF GDF15” (GENAGON THERAPEUTICS AB, priority 2015, published 2018) are described below.

B1: endogenous GDF15 (in MCF-7 cells treated with Sulindac sulphide and in human tumour tissue arrays) (ligand, UniProt Q99988 197-308, looked up)
chain: ARNGDHCPLGPGRCCRLHTVRASLEDLGWADWVLSPREVQVTMCIGACPSQFRAANMHAQIKTSLHRLKPDTVPAPCCVPASYNPMVLIQKTDTGVSLQTYDDLLAKDCHCI
notes: Detected in complex with receptors by in situ PLA
B2: pyroglutamylated RFamide Peptide Receptor (QRFPR) (receptor)
chain: MQALNITPEQFSRLLRDHNLTREQFIALYRLRPLVYTPELPGRAKLALVLTGVLIFALALFGNALVFYVVTRSKAMRTVTNIFICSLALSDLLITFFCIPVTMLQNISDNWLGGAFICKMVPFVQSTAVVTEILTMTCIAVERHQGLVHPFKMKWQYTNRRAFTMLGVVWLVAVIVGSPMWHVQQLEIKYDFLYEKEHICCLEEWTSPVHQKIYTTFILVILFLLPLMVMLILYSKIGYELWIKKRVGDGSVLRTIHGKEMSKIARKKKRAVIMMVTVVALFAVCWAPFHVVHMMIEYSNFEKEYDDVTIKMIFAIVQIIGFSNSICNPIVYAFMNENFKKNVLSAVCYCIVNKTFSPAQRHGNSGITMMRKKAKFSLRENPVEETKGEAFSDGNIEVKLCEQTEEKKKLKRHLALFRSELAENSPLDSGH
notes: Endogenous receptor of MCF-7 / U2OS cells and human tissues; also called GPR103; orexigenic neuropeptide QRFP receptor
B3: AP1 (control protein): AAAQEADGARSAVVAAGGGSSGQVTSNGSIGRDPPAETQPQNPPAQPAPNAGGGGSGGGGSGGGGS-Fc mouse IgG1 (Fc fusion, not shown: a dimerising Fc or GST)
chain: AAAQEADGARSAVVAAGGGSSGQVTSNGSIGRDPPAETQPQNPPAQPAPNAGGGGSGGGGSGGGGS
notes: also called control polypeptide

For assay [1], the target named is T1, GDF15 (Homo sapiens, UniProt Q99988).
T1 construct: purchased Abcam
T1 sequence (Q99988 197-308 limits assumed): B1 chain
Nature of the assay: GST-pulldowns of GDF15 with GST-fusion QRFPR and CLPTM1 fragments. Type of assay: binding. The following applies: equal amounts of GST-fusion protein and GDF15, 4 hrs at 4° C., extensive washes incl. high salt; FIG. 8B. How it is done:
We then assembled the GDF15 binding motifs from QRFPR and CLPTM1 using synthetic hybridized oligonucleotides corresponding to the motifs from either extracellular domain 3, 4 (QRFPR) or CLPTM1. The oligonucleotides were inserted in a pGEX4T1 backbone, expressed in BL21 DE3pLys bacteria and purified. The correct sequences were confirmed by Sanger sequencing.
We then incubated the purified GST-fusion proteins with equal amounts of GDF15 and subjected the analytes to extensive washes including high salt buffers.
In short, selected fragments of the receptors were constructed from synthetic oligomers (ultramers, IDT technologies), the flanking ends digested by restriction enzymes, and inserted in a pGEX 4T-1 vector (Pharmacia Biotech). The constructs were cloned in a DH5 a library efficiency bacteria (Invitrogen). The correct clones were identified by analytical restriction digest run on a 2% agarose gel, and validated by Sanger sequencing at the Uppsala sequencing centre.
The validated clones were used to transform BL21pLYs bacteria. […]
The material was denatured by boiling in SDS loading dye supplemented with DDT for 5 min, then run on a 12% acrylamide gel (120 V for 70 min) and analysed by ECL and CCD camera (Biorad). […]

Assay [2] deals with QRFPR. Nature of the assay: In situ PLA detection of RAB11-QRFPR double positive endosomes in MCF7 cells. Type of assay: cell-based. The following applies: MCF7 cells; GDF15 pre-incubated with receptor fragment; FIG. 9A-D. From the text: The RAB11 protein is a marker for recycling endosomes back to the cell surface, and the RAB11 pathway is also involved in exosome assembly (Savina et al., 2005; Savina et al., 2002). RAB11 was thus thought to be a likely candidate to be involved in QRFPR reduction on the cell surface induced by GDF15
An in situ PLA assay was developed to detect the proximity of RAB11 and QRFPR. In the absence of GDF15, only a low signal is observed (FIGS. 5A and 5C).
(§1) We choose to use this assay as a way to investigate if the activity of GDF15 could be inhibited by various agents. […] GDF15-induced formation of RAB11/QRFPR endosomes is inhibited by QRFPR peptides (FIG. 9A-D). Equal amounts of a mastermix of GDF15 was aliquoted and pre-incubated in PBS with the various receptor fragment before addition to cells. Sequentially, the cells were treated with either PBS, GDF15 or GDF15/QRFPR-derived peptide mixes.

For assay [3], the system named is QRFPR. Put plainly: In situ PLA detection of QRFPR at the cell surface in U2OS osteosarcoma cells. Format: cell-based. The conditions noted are these: U2OS osteosarcoma cells; GDF15 + peptide; FIG. 9E.
Source text: A-D) In situ PLA detection of the Rab11-QRFPR complex following exposure of MCF7 cells to GDF15. A) +Ctrl peptide. B) +QRFPR extracellular N-terminal peptide. C-D) +QRFPR extracellular loop3 (domain 4) peptide. The level of the Rab11-QRFPR complex is reduced by the peptide from extracellular loop3 of QRFPR. E) in situ PLA detection of QRFPR in U2OS osteosarcoma cells.
as §1

The subject of assay [4] is QRFPR. Nature of the assay: In situ detection of QRFPR at the cell surface after GDF15 with or without peptide (FIG. 10A-C). Type of assay: cell-based. The conditions noted are these: cells exposed to GDF15 + synthetic peptide. The text has this:
(§2) A-C) In situ detection of QRFPR at the cell surface. A) Negative control cells with no added GDF15. B) Cells after exposure to GDF15. C) Cells after exposure to GDF15+ synthetic peptide GEKEYDDVTIK derived from extracellular domain 4 of QRFPR. […] D-F) In situ PLA detection of ACTRIIB at the cell surface. D) Control cells with no added P518. E) Cells after exposure to P518. F) Cells after exposure to P518+ synthetic peptide GEKEYDDVTIK derived from extracellular domain 4 of QRFPR in 125 molar excess. The ability of P518 to increase the level of ACTRIIB at the cell surface was not affected by the peptide.
FIGS. 10A-10C confirm that GDF15 reduces the level of QRFPR at the cell surface, and that this reduction may be reversed by a peptide derived from extracellular loop 3 (extracellular domain 4) of QRFPR.

For assay [5], the target named is T2, QRFPR (Homo sapiens, UniProt Q96P65).
T2 construct: endogenous in cells
T2 sequence (Q96P65 1-431): B2 chain
Put plainly: ACTRIIB assay: in situ PLA detection of ACTRIIB at the cell surface after QRFPR agonist P518. Format: cell-based. The conditions noted are these: P518 + peptide in 125 molar excess, FIG. 10D-F.
Source text: as §2
The effect of the QRFPR agonist p518 was measured. In short, p518/QRFP-26 was purchased from Phoenix Peptides, CA and processed according to the manufacturer's instructions. Cells were serum-starved prior to P518 stimulation overnight.
P518 was mixed with either PBS or QRFPR receptor fragment dissolved in PBS prior to stimulation of cells.

Assay [6] has as its target B2. Put plainly: in situ PLA on tissue micro array.
The target of assay [7] is T3, Cleft Lip and Palate Transmembrane protein 1 (CLPTM1) (human, UniProt O96005 2-669).
T3 construct: Endogenous receptor of NK-92 cells, CD14+ cells and human tissues
T3 sequence: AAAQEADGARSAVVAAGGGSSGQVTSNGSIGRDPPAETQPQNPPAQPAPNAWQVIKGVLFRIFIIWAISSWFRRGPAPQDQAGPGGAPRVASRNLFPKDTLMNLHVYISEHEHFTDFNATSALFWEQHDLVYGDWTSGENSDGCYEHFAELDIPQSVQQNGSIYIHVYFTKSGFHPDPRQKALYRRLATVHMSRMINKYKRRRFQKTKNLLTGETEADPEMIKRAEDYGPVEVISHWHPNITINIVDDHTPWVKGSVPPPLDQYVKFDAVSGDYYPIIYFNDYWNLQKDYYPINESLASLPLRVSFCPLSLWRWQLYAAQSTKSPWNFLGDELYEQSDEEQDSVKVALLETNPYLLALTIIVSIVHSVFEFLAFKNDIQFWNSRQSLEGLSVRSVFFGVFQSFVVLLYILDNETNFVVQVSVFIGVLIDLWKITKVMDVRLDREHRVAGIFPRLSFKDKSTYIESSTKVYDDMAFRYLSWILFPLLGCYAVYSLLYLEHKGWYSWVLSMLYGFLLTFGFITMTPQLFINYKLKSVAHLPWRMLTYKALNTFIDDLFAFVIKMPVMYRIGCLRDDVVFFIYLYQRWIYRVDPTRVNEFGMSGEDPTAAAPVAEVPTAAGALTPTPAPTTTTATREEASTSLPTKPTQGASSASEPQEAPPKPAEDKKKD
Put plainly: in situ PLA on tissue micro array.

Assay [8] deals with T4, ACTRIIB (UniProt Q13705 19-512, limits assumed).
T4 construct: whole, on cells; also called activin type II receptor B
T4 sequence (Q13705 19-512 limits assumed): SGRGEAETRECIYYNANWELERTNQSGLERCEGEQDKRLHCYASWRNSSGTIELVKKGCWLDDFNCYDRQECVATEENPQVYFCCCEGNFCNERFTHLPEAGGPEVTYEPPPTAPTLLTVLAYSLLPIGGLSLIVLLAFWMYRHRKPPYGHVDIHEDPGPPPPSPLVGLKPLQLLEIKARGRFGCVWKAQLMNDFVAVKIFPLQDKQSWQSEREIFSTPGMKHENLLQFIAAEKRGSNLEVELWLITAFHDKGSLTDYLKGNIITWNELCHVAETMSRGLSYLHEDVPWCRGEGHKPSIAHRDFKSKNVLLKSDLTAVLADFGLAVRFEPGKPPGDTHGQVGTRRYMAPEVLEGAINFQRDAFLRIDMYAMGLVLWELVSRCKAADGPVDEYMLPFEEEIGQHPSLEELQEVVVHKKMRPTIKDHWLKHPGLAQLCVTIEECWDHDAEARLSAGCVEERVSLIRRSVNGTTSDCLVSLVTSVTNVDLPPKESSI
Put plainly: in situ PLA on serum-starved MCF7 cells. The protocol:
MCF7 cells were stimulated with GDF15 (GDF15 from isolated mammalian source or recombinant derived from E. coli purchased from Abcam and Biovision). An assay was developed for monitoring the activity of GDF15 and to investigate the dynamics of receptor(s) such as QRFPR modulation by the ligand.
Serum-starved MCF7 cells were treated with GDF15, and an in situ PLA detection assay was developed to detect the interaction between ACTRIIB and QRFPR using antibodies from two different species, thus allowing the use of Duolink secondary detection reagents. The presence of the QRFPR-ACTRIIB complex was detected in the absence of GDF15 (see FIG. 3A, indicated by arrows).

For assay [9], the target named is T5, Growth and differentiation factor 15 (GDF15) (UniProt Q99988 197-308, limits assumed).
T5 construct: Purchased GDF15 added to cells, pull-downs, peptide arrays and ELISA; also called MIC1
T5 sequence (looked up): B1 chain
Put plainly: Fc-fusion pull-down, said to agree with the array results. The protocol: 20 μg Fc fusion protein constructs were incubated with 0.5 μg GDF15 and protein-G bead with mixing for 6 hrs in +4 C in PBST+1% BSAs. Wash 6 times: 3 times PBST, change tubes, 2 washes PBST+220 mM NaCl. Last wash PBS. The beads were collected using a table-top centrifuge set at 500 g for 5 minutes between washes. Detection The material was loaded on a 4-12% gradient gel, run at 100 volt, transferred to PVDF membrane using a Turbo Tank blot system, blocked by PBS with 3% BSA 1 hr RT, and incubated with RD systems a monoclonal anti-GDF15 antibody overnight. A secondary antibody: mouse HRP 1:2000 was used for detection. The size of band was estimated by comparing with a seeblue2 protein ladder marker run in an adjacent lane.

Regarding “ALFWEQHDLVYGDWTS (listed as Homo sapiens) [SEQ ID NO:18]”, the “GDF15 binding to GST-fusion protein (GST-pulldown)” value in [1] is “Increased binding”.

For the molecule “EIKYDFLYEKEHICCLEEWTS (listed as Homo sapiens) [SEQ ID NO:7]”, the “GDF15 binding to GST-fusion protein (GST-pulldown)” value in [1] was “Increased binding”.

With “GEKEYDDVTIK [synthetic peptide derived from extracellular domain 4 of QRFPR]”, in assay [2], the “GDF15-induced RAB11-QRFPR double positive endosomes” value is “substantially reduced”. The “level of QRFPR detected at the cell surface” value in assay [3] is “restore the level of QRFPR detected at the cell surface to the same level as control cells”. The “QRFPR at the cell surface” value in [4] is “reversed the removal of QRFPR from the cell surface”. Moreover, the “P518 induced ACTRIIB levels” value is “not affected” in assay [5] and “slight increase of ACTRIIB” in assay [5] (listed as QRFPR receptor fragment).

For B1, the binding result in assay [6] and in assay [7] was “binds” throughout.

Regarding B2, in [8], the binding result was “binds”.

For the molecule B3, the binding result in assay [9] is given as “no binding”.
